The target in experiment [1] is T1, human sclerostin (SOST) (human, UniProt Q9BQB4 24-213).
T1 construct: also called human SOST; h-SOST
T1 sequence (looked up): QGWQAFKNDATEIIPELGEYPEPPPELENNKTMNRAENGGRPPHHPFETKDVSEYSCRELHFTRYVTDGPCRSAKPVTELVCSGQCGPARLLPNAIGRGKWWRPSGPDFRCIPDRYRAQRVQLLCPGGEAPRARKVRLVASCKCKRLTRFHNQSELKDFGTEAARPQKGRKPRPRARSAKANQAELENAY
Description: binding ELISA, antigen-receptor binding blocking experiments, Biacore; no numbers given. Background: In an ELISA, binding on a coated surface is turned into a signal by an enzyme label.

The target of experiment [2] is T1, human sclerostin (SOST). Briefly: ELISA binding to human sclerostin (assay not given; taken from the text of Example 1).
The target of experiment [3] is T1, human sclerostin (SOST). Briefly: blocking of the binding of human SOST to human LRP-6.

B1: humanized anti-SOST antibody Ab-5 (antibody, human IgG4 S228P, kappa, V domains shown)
VH: EVQLVQSGAEVKKPGASVKVSCKASGYTFTDYNLDWLRQAPGEGLEWIGDIDPNDGDILYNQKFRDRVTMTTDTSTSTAYMELRSLRSDDTAVYYCARRWAYYFDYWGQGTTVTVSS
VL: DIVMTQSPSSLSASVGDRVTITCKASQSVSNDVAWYQQKPGKSPKLLIYYTSNRFTGVPDRFSGSGSGTDFTLTISSLQPEDFATYFCQQDYSSPVTFGGGTKVEIKR
notes: Human IgG4 heavy chain and kappa light chain
Turning to B1, the binding result with human sclerostin (SOST) [1] is on record as “binds”.

B2: humanized anti-SOST antibody Ab-9 (antibody, human IgG4 S228P, kappa, V domains shown)
VH: EVQLVQSGAEVKKPGASVKVSCKASGYTFTDYNLDWLRQAPGEGLEWIGDIDPNNGDILYNQKFRDRVTMTTDTSTSTAYMELRSLRSDDTAVYYCARRWAYYFDYWGQGTTVTVSS
VL: NIVMTQSPSSLSASVGDRVTITCKASQSVSNDVAWYQQKPGKSPKLLIYYTSNRFTGVPDRFSGSGSGTDFTLTISSLQPEDFATYFCQQDYSSPVTFGGGTKVEIKR
notes: as for B1
As for B2, the binding result with human sclerostin (SOST) [1] was “binds”.

B3: humanized anti-SOST antibody Ab-10 (antibody, human IgG1, kappa, V domains shown)
VH: EVQLVQSGAEVKKPGASVKVSCKASGYTFTDYNLDWVRQAPGQGLEWMGDIDPNNGDILYNQKFRDRVTMTTDTSTSTAYMELRSLRSDDTAVYYCARRWAYYFDYWGQGTTVTVSS
VL: DIQMTQSPSSLSASVGDRVTITCKASQSVSNDVAWYQQKPGKAPKLLIYYTSNRFTGVPSRFSGSGSGTDFTLTISSLQPEDFATYYCQQDYSSPVTFGGGTKVEIKR
notes: kappa light chain
As for B3, the binding result with human sclerostin (SOST) [1] was “binds”.

B4: murine anti-human SOST monoclonal antibody Ab-1 (antibody, V domains shown)
VH: EVQLQQSGPELVKPGTSVKIPCQTSGYTFTDYNLDWLKQRPGESLEWIGDIDPNNGDILYNQKFRDKATLTVDTSSNTAYLELRSLTSEDTAVYYCARRWAYYFDYWGQGTTLTISS
VL: NIVMTQTPKLLFVSAGDRITITCKASQSVSNDVAWYQQKPGQSPKLLIYYTSNRFTGVPDRFTGSGYGTDFTLTINTVQAEDLAVYFCQQDYSSPVTFGAGTKLELK
notes: Murine hybridoma antibody; also called monoclonal hybridoma cell strain Ab-1; murine antibody Ab-1
In the case of B4, the concentration giving a half-maximal response (EC50) in the experiment with human sclerostin (SOST) [2] was found to be 0.701 nM. For the same molecule, in the experiment with human sclerostin (SOST) [3], the concentration for half-maximal inhibition (IC50) was found to be 9.91 nM.

As a reminder, the EC50 is the concentration needed to bring the measured effect to its halfway point. A higher EC50 goes with weaker potency. Usually IC50 stands for the concentration that inhibits the measured activity by half.

The values above are taken from patent publication US20250011411A1 (JIANGSU HENGRUI PHARMACEUTICALS, published 2025).
